Reference: patent US20180298374A1 (Merck KGaA, published 2018)
Like-named read-outs stand apart in the source and are kept apart here.

Legend:
huEGFR [1] = biological target: T1, huEGFR (human, UniProt P00533 25-645, limits assumed, phycoerythrin conjugate (LYNX rapid RPE kit))
T1 construct: also called EGFR-PE; EGFR-phycoerythrin

huEGFR [2] = biological target: T1, huEGFR; remark: listed apart in the source

B1: matuzumab (antibody, V domains shown)
VH: QVQLVQSGAEVKKPGASVKVSCKASGYTFTSHWMHWVRQAPGQGLEWIGEFNPSNGRTNYNEKFKSKATMTVDTSTNTAYMELSSLRSEDTAVYYCASRDYDYDGRYFDYWGQGTLVTVSS
VL: DIQMTQSPSSLSASVGDRVTITCSASSSVTYMYWYQQKPGKAPKLLIYDTSNLASGVPSRFSGSGSGTDYTFTISSLQPEDIATYYCQQWSSHIFTFGQGTKVEIKG
- Kd (huEGFR [1]): 113 nM
- Kd (huEGFR [2]): 0.34 nM
